Source: US20070167369A1 (KYUNGPOOK NATIONAL UNIVERSITY INDUSTRY ACADEMIC COOPERATION …, published 2007)

Key:
[1] = target: T1, αvβ3 integrin (human, UniProt P06756 31-1048; P05106 27-788); experiment: binding of His-tagged protein to HUVECs in 96-well plates, His-probe-HRP detection, Scatchard analysis
T1 construct: whole, on cells; On human umbilical vein endothelial cells (HUVECs); also called αvβ3 integrin of endothelial cells
Experimental: (§1) HUVECs (3×10⁴ cells/100 μl) were seeded in the 96-well plates and then incubated with increasing concentrations of each protein for 1 hour at room temperature. Cell binding of each protein was detected by His-probe-HRP antibody and quantified by measuring hexosaminidase.

[2] = target: T1, αvβ3 integrin; experiment: binding to HUVECs, Scatchard analysis (Example 16); reference: fas-1 domain (βig-h3 D-IV)
Experimental: as §1

T1 sequence (P06756 31-1048, chain 1 of 2): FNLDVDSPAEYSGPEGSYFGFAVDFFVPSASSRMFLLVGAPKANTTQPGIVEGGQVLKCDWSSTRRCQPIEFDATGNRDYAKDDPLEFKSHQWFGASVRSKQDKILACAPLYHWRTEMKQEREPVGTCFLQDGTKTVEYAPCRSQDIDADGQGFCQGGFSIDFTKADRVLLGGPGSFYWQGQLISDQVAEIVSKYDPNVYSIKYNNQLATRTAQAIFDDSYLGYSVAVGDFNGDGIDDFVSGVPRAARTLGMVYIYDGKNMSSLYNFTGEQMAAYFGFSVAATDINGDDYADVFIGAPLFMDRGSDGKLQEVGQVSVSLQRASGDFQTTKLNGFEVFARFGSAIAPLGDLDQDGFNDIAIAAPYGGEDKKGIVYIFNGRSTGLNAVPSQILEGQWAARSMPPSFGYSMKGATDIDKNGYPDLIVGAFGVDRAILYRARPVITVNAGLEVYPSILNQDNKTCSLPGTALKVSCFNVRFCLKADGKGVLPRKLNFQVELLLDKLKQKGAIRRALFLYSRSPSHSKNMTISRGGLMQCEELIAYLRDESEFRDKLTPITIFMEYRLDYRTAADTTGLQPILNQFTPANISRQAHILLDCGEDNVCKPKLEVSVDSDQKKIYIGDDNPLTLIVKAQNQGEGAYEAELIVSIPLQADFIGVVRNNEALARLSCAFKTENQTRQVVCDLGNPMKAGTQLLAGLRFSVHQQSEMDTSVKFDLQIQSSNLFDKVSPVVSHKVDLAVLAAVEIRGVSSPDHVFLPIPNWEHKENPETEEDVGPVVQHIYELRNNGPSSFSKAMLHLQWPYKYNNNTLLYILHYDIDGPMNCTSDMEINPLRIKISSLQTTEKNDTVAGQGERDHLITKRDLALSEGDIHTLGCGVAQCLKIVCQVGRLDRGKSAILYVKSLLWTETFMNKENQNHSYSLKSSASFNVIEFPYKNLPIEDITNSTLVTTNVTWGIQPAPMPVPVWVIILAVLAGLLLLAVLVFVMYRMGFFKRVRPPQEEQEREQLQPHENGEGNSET
T1 sequence (P05106 27-788, chain 2 of 2): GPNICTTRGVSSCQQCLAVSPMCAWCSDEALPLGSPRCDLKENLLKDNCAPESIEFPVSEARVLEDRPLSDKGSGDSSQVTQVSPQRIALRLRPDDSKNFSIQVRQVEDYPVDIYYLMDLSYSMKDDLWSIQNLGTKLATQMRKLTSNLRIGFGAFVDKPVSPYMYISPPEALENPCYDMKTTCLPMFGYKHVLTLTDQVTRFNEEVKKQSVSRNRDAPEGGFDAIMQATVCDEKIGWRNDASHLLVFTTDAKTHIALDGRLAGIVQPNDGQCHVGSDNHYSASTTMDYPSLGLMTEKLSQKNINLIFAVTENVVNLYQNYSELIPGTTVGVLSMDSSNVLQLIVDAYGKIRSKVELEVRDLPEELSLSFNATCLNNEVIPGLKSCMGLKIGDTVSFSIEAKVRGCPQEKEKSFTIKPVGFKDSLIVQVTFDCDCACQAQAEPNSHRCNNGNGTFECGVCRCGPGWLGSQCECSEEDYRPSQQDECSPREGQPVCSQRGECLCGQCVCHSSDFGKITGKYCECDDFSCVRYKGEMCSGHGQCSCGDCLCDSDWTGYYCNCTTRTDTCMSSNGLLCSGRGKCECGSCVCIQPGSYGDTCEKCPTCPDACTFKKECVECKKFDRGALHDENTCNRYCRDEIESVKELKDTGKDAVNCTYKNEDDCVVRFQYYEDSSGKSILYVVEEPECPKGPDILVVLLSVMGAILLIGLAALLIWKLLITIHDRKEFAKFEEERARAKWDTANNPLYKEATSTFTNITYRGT

Kd [1] [µM] | Kd relative to that of the fas-1 domain of βig-h3 [2] [fold less] | Binder
~30 | – | βig-h3 D-IV (recombinant protein containing the fourth fas-1 domain of human βig-h3) (ligand, Cloned in pET-29b(+), Ni-NTA purified; also called fas-1 protein) MGTVMDVLKGDNRFSMLVAAIQSAGLTETLNREGVYTVFAPTNEAFRALPPRERSRLLGDAKELANILKYHIGDEILVSGGIGALVRLKSLQGDKLEVSLKNNVVSVNKEPVAEPDIMATNGVVHVITNVL
~0.303 | 100 | recombinant human βig-h3 protein βig-h3 His-β-b (truncated βig-h3) (ligand, also called βig-h3 His-1-b; Wild-type; not shown: vector-derived residues / His tag from the pET-29 vector (Ni-NTA purified, detected with His-probe-HRP)) WYQRKICGKSTVISYECCPGYEKVPGEKGCPAALPLSNLYETLGVVGSTTTQLYTDRTEKLRPEMEGPGSFTIFAPSNEAWASLPAEVLDSLVSNVNIELLNALRYHMVGRRVLTDELKHGMTLTSMYQNSNIQIHHYPNGIVTVNCARLLKADHHATNGVVHLIDKVISTITNNIQQIIEIEDTFETLRAAVAASGLNTMLEGNGQYTLLAPTNEAFEKIPSETLNRILGDPEALRDLLNNHILKSAMCAEAIVAGLSVETLEGTTLEVGCSGDMLTINGKAIISNKDILATNGVIHYIDELLIPDSAKTLFELAAESDVSTAIDLFRQAGLGNHLSGSERLTLLAPLNSVFKDGTPPIDAHTRNLLRNHIIKDQLASKYLYHGQTLETLGGKKLRVFVYRNSLCIENSCIAAHDKRGRYGTLFTMDRVLTPPMGTVMDVLKGDNRFSMLVAAIQSAGLTETLNREGVYTVFAPTNEAFRALPPRERSRLLGDAKELANILKYHIGDEILVSGGIGALVRLKSLQGDKLEVSLKNNVVSVNKEPVAEPDIMATNGVVHVITNVLQPPANRPQERGDELADSALEI
